For data set [1], the target named is phospho-CrkL recombinant protein. Briefly: sandwich immunoassay, microfluidic chip, 1 hour: Y244 capture, phospho-CrkL analyte, 4G10-coated beads counted.
Data set [2] shares this target. The data set can be described thus: sandwich immunoassay, 96-well plate, 12 hours: Y244 capture, phospho-CrkL analyte, 4G10 and FITC anti-mouse detection.
Data set [3] deals with T1, Src peptide substrate KVEKIGEGTYGVVYK
T1 sequence: KVEKIGEGTYGVVYK

In the case of “rabbit anti-CrkL monoclonal antibodies (clone Y244, Novus Biologicals #NB110-56895) (antibody)”, the Current limit of detection is 100 pM in data set [1] and 1 nM in data set [2].

With Src kinase, in data set [3], the “detection limit (kinase activity, beads bound/counted)” value is reported as “resulting in a detection limit of 100 fM”.

The values above are taken from patent publication US20110312518A1.
